Reference: patent publication US12692524B2, “Sialyltransferases and their use in producing sialylated oligosaccharides” (Chr. Hansen A/S, priority 2017, dated 2026)

B1: SiaT19: sialyltransferase of Photobacterium leiognathi JT-SHIZ-145, acc. BAF91416, SEQ ID NO: 30 (protein, listed as Photobacterium leiognathi)
chain: MNDNQNTVDVVVSTVNDNVIENNTYQVKPIDTPTTFDSYSWIQTCGTPILKDDEKYSLSFDFVAPELDQDEKFCFEFTGDVDGKRYVTQTNLTVVAPTLEVYVDHASLPSLQQLMKIIQQKNEYSQNERFISWGRIRLTEDNAEKLNAHIYPLAGNNTSQELVDAVIDYADSKNRLNLELNTNTGHSFRNIAPILRATSSKNNILISNINLYDDGSAEYVSLYNWKDTDNKSQKLSDSFLVLKDYLNGISSEKPNGIYSIYNWHQLYHSSYYFLRKDYLTVETKLHDLREYLGGSLKQMSWDTFSQLSKGDKELFLNIVGFDQEKLQQEYQQSELPNFVFTGTTTWAGGETKEYYAQQQVNVVNNAINETSPYYLGREHDLFFKGHPRGGIINDIILGSFNNMIDIPAKVSFEVLMMTGMLPDTVGGIASSLYFSIPAEKVSFIVFTSSDTITDREDALKSPLVQVMMTLGIVKEKDVLFWC
B2: SiaT9: sialyltransferase of Vibrio sp. JT-FAJ-16, acc. BAF91160, SEQ ID NO: 2 (protein, listed as Vibrio sp.)
chain: MNNDNSTTTNNNAIEIYVDRATLPTIQQMTKIVSQKTSNKKLISWSRYPITDKSLLKKINAEFFKEQFELTESLKNIILSENIDNLIIHGNTLWSIDVVDIIKEVNLLGKNIPIELHFYDDGSAEYVRIYEFSKLPESEQKYKTSLSKNNIKFSIDGTDSFKNTIENIYGFSQLYPTTYHMLRADIFDTTLKINPLRELLSNNIKQMKWDYFKDFNYKQKDIFYSLTNFNPKEIQEDFNKNSNKNFIFIGSNSATATAEEQINIISEAKKENSSIITNSISDYDLFFKGHPSATFNEQIINAHDMIEINNKIPFEALIMTGILPDAVGGMGSSVFFSIPKEVKNKFVFYKSGTDIENNSLIQVMLKLNLINRDNIKLISDI

Experiments:
[1] = Batch fermentation of LNT-producing E. coli BL21(DE3) #2130 expressing sialyltransferases, TLC of intracellular fraction; format: cell-based, Escherichia coli BL21(DE3); conditions: strain #2130, 3 mM lactose, 3 mM sialic acid, 48 hours after induction, validated by mass spectrometry
Text: Escherichia coli BL21(DE3) strain #534 was used to construct a lacto-N-tetraose (LNT) producing strain. The β-1,3-N-acetylglucosaminyltransferase gene IgtA from Neisseria meningitidis MC58 (acc. no. NP_274923) was codon-optimized for expression in E. coli and prepared synthetically by gene synthesis. Together with the gene galT, encoding a galactose-1-phosphate uridylyltransferase from E. coli K-12 substr. MG1655 (acc. no. NP_415279), that was similarly obtained by gene synthesis, IgtA was inserted by transposition (SEQ ID NO: 188) using plasmid pEcomar-IgtA-galT. To enhance de novo synthesis of UDP-N-acetylglucosamine, genes encoding L-glutamine:D-fuctose-6-phosphate aminotransferase (glmS), phosphoglucosamine mutase from E. coli K-12 substr. MG1655 (glmM) and N-acetylglucosamine-1-phosphate uridyltransferase/glucosamine-1-phosphate acetyltransferase (glmU) from E. coli K-12 substr. MG1655 (acc. no. NP_418185, NP_417643, NP_418186, respectively) were codon-optimized and obtained by gene synthesis. The operon glmUM was cloned under the control of constitutive tetracyclin promoter Ptet while glmS was cloned under the constitutive PT5 promoter. […]

[2] = In vivo screening in E. coli #1363/#1730 with lactose as acceptor, sialyllactose identified by TLC; format: cell-based, Escherichia coli BL21(DE3); conditions: 1.5 mM lactose, 72 to 96 hours, qualitative via TLC
Outline: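 E. coli BL21(DE3) #1363/#1730 expressing sialyltransferases were grown at 30 °C in mineral salts medium with 2% glucose and induced with 0.3 mM IPTG. After 1 h, 1.5 mM lactose was added, plus 1.5 mM sialic acid for #1730, and incubation ran 72–96 h. Cell lysates were analysed by silica TLC with thymol staining.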

Molecule	Intracellular formation of sialyllacto-N-tetraose [1]	Production of sialyllactose in-vivo [2]
B1	LST-b	6′-SL
B2	LST-a	3′-SL
